Experimental data published in patent publication US20230355708A1.

Legend:
S1 (SARS-CoV-2) = S1 (SARS-CoV-2) (UniProt P0DTC2); experiment: SPR
Yu gp120 = experiment: SPR

Substance	Kd (S1 (SARS-CoV-2))	Kd (Yu gp120)
ACE2	2.4 nM	
P51G-CVN-HIS(OK)		22.8 nM
